# Experimental data reported in IntAct's records for PubMed 18334649.
# B1: Receptor tyrosine-protein kinase erbB-4 (Homo sapiens), Q15303 (parent)
# chain: MKPATGLWVWVSLLVAAGTVQPSDSQSVCAGTENKLSSLSDLEQQYRALRKYYENCEVVMGNLEITSIEHNRDLSFLRSVREVTGYVLVALNQFRYLPLENLRIIRGTKLYEDRYALAIFLNYRKDGNFGLQELGLKNLTEILNGGVYVDQNKFLCYADTIHWQDIVRNPWPSNLTLVSTNGSSGCGRCHKSCTGRCWGPTENHCQTLTRTVCAEQCDGRCYGPYVSDCCHRECAGGCSGPKDTDCFACMNFNDSGACVTQCPQTFVYNPTTFQLEHNFNAKYTYGAFCVKKCPHNFVVDSSSCVRACPSSKMEVEENGIKMCKPCTDICPKACDGIGTGSLMSAQTVDSSNIDKFINCTKINGNLIFLVTGIHGDPYNAIEAIDPEKLNVFRTVREITGFLNIQSWPPNMTDFSVFSNLVTIGGRVLYSGLSLLILKQQGITSLQFQSLKEISAGNIYITDNSNLCYYHTINWTTLFSTINQRIVIRDNRKAENCTAEGMVCNHLCSSDGCWGPGPDQCLSCRRFSRGRICIESCNLYDGEFREFENGSICVECDPQCEKMEDGLLTCHGPGPDNCTKCSHFKDGPNCVEKCPDGLQGANSFIFKYADPDRECHPCHPNCTQGCNGPTSHDCIYYPWTGHSTLPQHARTPLIAAGVIGGLFILVIVGLTFAVYVRRKSIKKKRALRRFLETELVEPLTPSGTAPNQAQLRILKETELKRVKVLGSGAFGTVYKGIWVPEGETVKIPVAIKILNETTGPKANVEFMDEALIMASMDHPHLVRLLGVCLSPTIQLVTQLMPHGCLLEYVHEHKDNIGSQLLLNWCVQIAKGMMYLEERRLVHRDLAARNVLVKSPNHVKITDFGLARLLEGDEKEYNADGGKMPIKWMALECIHYRKFTHQSDVWSYGVTIWELMTFGGKPYDGIPTREIPDLLEKGERLPQPPICTIDVYMVMVKCWMIDADSRPKFKELAAEFSRMARDPQRYLVIQGDDRMKLPSPNDSKFFQNLLDEEDLEDMMDAEEYLVPQAFNIPPPIYTSRARIDSNRSEIGHSPPPAYTPMSGNQFVYRDGGFAAEQGVSVPYRAPTSTIPEAPVAQGATAEIFDDSCCNGTLRKPVAPHVQEDSSTQRYSADPTVFAPERSPRGELDEEGYMTPMRDKPKQEYLNPVEENPFVSRRKNGDLQALDNPEYHNASNGPPKAEDEYVNEPLYLNTFANTLGKAEYLKNNILSMPEKAKKAFDNPDYWNHSLPPRSTLQHPDYLQEYSTKYFYKQNGRIRPIVAENPEYLSEFSLKPGTVLPPPPYRHRNTVV
# Variants of: B1
# Settings: with ITCH
row,effect of a mutation on the interaction,Variant
1,disrupting interaction,Y1056F
2,disrupting interaction,P1054A
